We go through 18 sequences from a protein production outcome set (Wang et al. 2014).

A short description of this series: label from the status in PepcDB records.

For “MKVTSVGAAMLLLIVGNLIAVLSDSLIKSVANEVPMFQFVFFRQISAVMFLLPVCLLAKQTNFMEGFKWHAVRAHVWLLGAVFMVMAISSLPLATANAIFYAAPLIMLPLAAIFFGEQLSKQSVAAAVMGFAGVLVIIRPDQIDWAAISAFVVALTLAINNLLIRKLPKNQSVMQTLLMTNLAGIPVALLLVLIEDQPWQWGAFPVAAGSSLFIMIYAATCVLAYRSIDSNKIASAEYSGLIGAVVVGFIWFGEIPDIFMAIGTVMIVVPLIWLSKRERRKQKEHAQLQAQKEHEQQQAHVA”, the protein production result is reported as “failed”.
For the sequence “MKVVLAAIHPVPSPQAVPLANAFLKAYLGTDEELAARVAVTLCDFLRSTPADVCAAEILAHEPDAVGFSLYLWNTEESGRIAAELRRNRPGITIFAGGPQATADPLGTLTGGGYDFLILGEGEVPFLEVTARLADGRPFRGAPGTAWLDDGKLASRPQKPVALLDTIPSPFLSGIIEPGRYGGLLWQLSRGCDFACEYCFDYKGTKGVRRFSLERVDAELDFLVRHNVPQVFVLDSTFNVDAKRAKTILRMIRKRAPHIHFHFEVRSEFLDREMARLFAGITCSLQIGLQSADPAILKGIRRHFDPDDFRKRVALLNESGAVFGFDLIYGLPGDSLAGFRQSLDFALALYPNHLDIFPLAVLPGTPLAARAAQAGLDHLPAPPYALTATPTFPAPDMKRAARLAGACDIFYSRGKAVAWFNGVIAPLSLTPAEFLDAFGGWLARQGIEAREEALGDEAIWSLQRSFLAHIFADRRVRRLLPVALDLVDYHYHYAAALLAPPPELPTDRSLAGLNILDQVVCLAPSTRLARFSYEITDLLEAGNADLREICACFSPSPSWAVIYPRGNDIFTESLLESYFLLLEGLDGCCRAGDVVARLALSGEGAAEFLKFAAAEGIVTVRNCP”, the protein production result was “failed”.
Turning to “MKVYIETMGCAMNSRDSEHLLSELSKLDYKETNDPKTADLILINTCSVREKPERKLFSEIGQFAKIKKPNAKIGVCGCTASHMGADILKKAPSVSFVLGARNVSKISQVIHKEKAVEVAIDYDESAYAFEFFEKKAQIRSLLNISIGCDKKCAYCIVPHTRGKEISIPMDLILKEAEKLANNGTKELMLLGQNVNNYGARFSSEHAKVDFSDLLDKLSEIQGIERIRFTSPHPLHMNDGFLERFAKNPKVCKSIHMPLQSGSSAVLKMMRRGYSKEWFLNRVERLKALVPEVGISTDIIVGFPNESDKDFEDTMEVLEKVRFDTLYSFIYSPRPFTEAGAWKERVPLEVSSSRLERLQNRHKEILEEKAKLEVGKTHVVLVENRREMDNQIVGFEGRSDTGKFIEVTCKEKRNPGELVKVEIISHSKGRLMAATKGN”, the protein production entry is “failed”.
In the case of “MKWEMGLQEEYIELIKAGKKKIEGRLYDEKRRQIKPGDIIIFEGGKLKVKVKGIRVYSSFKEMLEKEGIENVLPGVKSIEEGVKVYRQFYDEEREKKYGVVAIEIEPIE” it was “not failed”; in that of “MKWIEIYEKLVNIDTGPDLPLEGKLRRTSFLTEILEDLGFRVEKREAAYVAFRGKPPYVTLIGHLDTVFPEGESKRRPFTIEGNIAKGPGVCDMKGGVVILLESLKRFLQQNDTDLCVVLNVDEELGSPLSGEVFKEVAGMSSHCLSFEPGRENGELISSRKGIISLWLFARGKKGHASRLDEGANAIVELAFKVVELTSLNGRFPNLTLNPTIVKGGAESNVTPDKAEVYFDVRYYDDKEYEFLEETLKRLSAVHPEANVSYTLKLRRLPMKEDPDFVNIVKMSAEEIGMTVSFVRATGGGDVAFFSQNGVPSIDGLGIPGGKMHSEDEYARLDQFEDRVNLVVHLLRKLGGEKNVR”, “not failed”; in that of “MKWIMKLRWAILAFWLAAAVVLMFIAPPMADLVREKGELKLPDGYPSSLATEMQKKHNPDDKGSAYIAVYTADHKLTGTELNDIQKSLDSIEKDKDELHVTNVLSSFNQPELKDKFLAKDGKTMVASLTVDDTDASVKSIRNALDKKMDVKGVDTYLTGNKLIQEDVVQGSEDGLHKTEGITVVFILVVLFLVFRSAVAPFIPLITVGISYLVAQSTVAFLIDIFNFPVSTYTQIFMVCIMFGIGTDYCILLMSRFKEEMGAGLNPREAVHATYRTAGKTVIYSGVAVLVAFTSLYFVQFDLYRSAVAVGVGIVVLLAALYTLVPFFMSTLGTHLFWPLNKNISHKENKIWGAAGKFTFARPWIALLIVAAITLPPILLHTGTESFNSLDEISDKYPSKKGFEIVSDSFGAGQVAPTQIFIENDDNMRTTDYIAQIEKISDDLSHLKGIDMVMSASRPAGKRVDDIYIKNQAGQVNDGVGQATDGVGEVKKGLDSASSELKKSEPALDKAVAGVGDLQKGTVATQEGINQLQTALAQIQKGIESGATGAGDLKQGVAEAKSQLATLQNGEAQIQAGYAEIQKNLQNVADQLKGFENPSSQAIDTSKLEEQFKKIGASFQAFAAAHPEVRNDPRFQKLAADIQGLETAGNELKTSAGQQMAALQAKMKELNQGIQQLATAMNQLNEQSKQISDGLSAFSTGLGQIETGLDQLEKGLNQAAVGQGQVVSKMPEVSNALTQIAAGQGALKDGFAGISGQMGQLTDGLTSGADGLGKVESGLNTANGLIDDWSKVPYASSGIYVPDALLKNADFQKVLDQYISSDGKLATINVILTKNPYSNEAMDSIDDINDQLAASMKGTKLENAKIGIGGMTSANYDTRDMSTADYHLVLVIVLASVFVTLVIVLRSLVMPIYLIASLVLTYFAALGFAEIIFMRILGYSGLTWATPFFGFVVLVALGIDYSIFLMSRFNEYNGLSVRDRMIKAMKNMGGVIFSAVIILGGTFAAMMPAGVLSLLEIATVVLIGLVLYAVVILPLFVPVMVKLFGRGNWWPFITRKGDHQENVPPKK”, “failed”.
With “MKWKKSLAGLSSYKPGKREEEVMAELGLTKITKLSSNENPLGTSKKVAAIQANSSVETEIYPDGWASSLRKEVADFYQLEEEELIFTAGVDELIELLTRVLLDTTTNTVMATPTFVQYRQNALIEGAEVREIPLLQDGEHDLEGMLNAIDEKTTIVWICNPNNPTGNYIELADIQAFLDRVPSDVLVVLDEAYIEYVTPQPEKHEKLVRTYKNLIITRTFSKIYGLASARVGYGIADKEIIRQLNIVRPPFNTTSIGQKLAIEAIKDQAFIGECRTSNANGIKQYEAFAKRFEKVKLYPANGNFVLIDLGIEAGTIFSYLEKNGYITRSGAALGFPTAVRITIGKEEDNSAVIALLEKLL”, the protein production entry is “not failed”.
As for “MKWLLVASAALYLFGSFRRPLFALGLGAGLAYLALRGISLGRLPLVGPHDTIAFFSASIGLMTLPFLFSPSLRNSSAFPWATGGTAAVFALFSLAFPALAMPLPPILNTLWFELHVALAFFAYALFTIGAIMGVLFLAGGERRLLDLQYRAALVGYTFFSGSMVAGGIWGYYAWGTYWLWTPKELWTSILWIFYTFWLHLRLRGAGGDRLLAWTGILGFGVMLFTYLGVSMLMKSSHSF”, the protein production result is listed as “failed”.
In the case of “MKYAIREYKGKNVDLSKLSSIIENYFREENFVTQSSQHPRGYVIQAKKGGIFRTILGMDRAFTIVLVGDSSDFKVQIGVGKWLQDLGVAAIEAFLITPVVAFVEVPESLWSFELEHEFWQFLENQINLGIQ” it was “failed”; in that of “MKYKLLVLDVDGTLLNDEKEITPRTLATLLKVQQMGVHIVLASGRPTYGILPLAKKLELGNYGGYILSYNGAQVINAKNGEVLLERRINPEMLPYLEKKARKNGFAIFTYTEDRMIADQADNEHILQEAFLNRMELIEEPEFSVAVDFAPSKCMLVSDDEEALIGLEEHWKKRLNGALDVFRSEPYFLEVLPCGIDKSTSLGALLSHLDITPEEIIVIGDGVCDVSMIQFAGLGIAMGNAQDSVKVCADVVTASNEEDGVALAVEKAILSEIRPAEIPLDQLNERARHALMGNLGIQYTYASEDRVEATMPVDERTRQPFGILHGGATLALAETVAGLGSMILCQPDEIVVGMQVSGNHMSSAHEGDTVRAVGTIIHKGRSSHVWNVDVFTSTDKLVSSIRVVNSILKKR”, “failed”.
In the case of “MKYLKNKIIHFLIFGGIYMDVEVLARAHGQQLVGYEGIKPLSLMGFTSLWMFLVGGLCGVIIGGLNDRPGYYNLKMWKQVLIGGTTITLVELFSGIFFNLYLGLHLWDYSKDRFNFMGQIELKNCIWWYVLPILIIWLDDVLSCYFYGDDRPPSLIMYLVKLVTLR” it was “failed”; in that of “MKYLPLYPILARYPFLRIASRVFSFNIEDELRKFLDTVEAAKRIVDKAIDGRVEYDRFTDESEFFCLGCEENCYDCQKRGTLEGCDLCMGCFENCSLYYPREAVERFYTNAKLSLLTYIASRMIVSAMEDWVRMRYAVNEASYYSRLLREDVEESGKEPIVRLVAIDLGAKLKGWKMHVSTFVRVSARIKDDKWRLVNRKLRNGWVETTKAEVLRGLEELLRMKLFEKVPVSEAVSEAVRELSRKAKRESEKFAMDLGEVDLNCLPPCMREILSELQRGMNIPHTARFAITSFLLNIGMTVDEIIALFKSAPDFDDEKTRYQVEHIAGERGKGAEYTSPSCDTMRTYSNCVADCRVSHPLIYYKKCKSKSLEHHHHHH”, “not failed”.
Take “MKYQNEGQHRSPWALIVFLALSMAVTSPATRAQSSDLPSIGGSGGLISGQMEADIGQQVMASIRRSAPQLQDPLVYDYLSAIIYRLVPSAPLDNRDLKLVLIDSPAINAFAVPGGVVGVNGGLFLNAATEQQFASVLAHELAHLSQRHFARRMQQQETSAPLTLAGMIAGIVLSAVTQSDIGIAAIAGTQAMAVQNMLAYSRSHEQEADRVGMDILASAGMDPRGMPEMFEIMMRQNRLQGNRLPEYLSTHPLTQNRVADTRNRAEQYPDTRVQDGQEYHLVRSRLQVHYSESPETAIETFEAYLAREDAQRNDAIRYGLAVAYQESRRYEKAEQLMRELLKANPGRITFQVSLAEVLLSQKRYADARALMQEALARNPGNYPITSTLAAIEIADGNGAAAADYLRELTRRLPSQEQLWLRLAEAEGMARNIVGVHRARAEYDVLMGDLKSAQRQLRQAQEKLPAGSAERQVVSERLGELTNRLQAREAG”: the protein production result is recorded as “failed”.
In the case of “MKYRQWVLGAGFTLSVGLSSVAHAFSIPQPANEIAASKFVHIQVQAEQGDADAQFLLGLMFLSGRYVQQEVPSGLHWITLAAEQQHEKAQQTLADLSFEGQLIKRDLAVAERWYKDMGERGNRWAQFRLGFIYASGGDGVKRNCGKAVEQFTRVGDDIALGNVAWILATCPEAEYRDGNKALELSLQLLKVNENDPTNLDNLAAAYAEVGDFGAAVSTQQKAIAALKMTAEATKTDEFKQRLHSYEQKRAYRETLRLLE” it was “failed”; in that of “MKYSEAQQGRVFVIRLEDGDIFHEEIERFAKEKGIERAYLNVVGGADKESKLVVGPEESRTYPVNPMEHELYDAHEIVGTGTLFPDDTSAPVVHLHMACGREENTVTGCVRNGVKVWHVMEVILVELLGTQARRLPDKATGFKLLVPLEHHHHHH”, “not failed”; in that of “MKYYPFSYYRSINAADLYENIKAYTVLDVREPFELIFGSIANSINIPISELREKWKILERDKKYAVICAHGNRSAAAVEFLSQLGLNIVDVEGGIQSWIEEGYPVVYGRESAEDLEHHHHHH”, “not failed”.
With “MLALKKKSVKAAFEALIPKIMEEGTEMVSEDGQKCKELMNTIIEITDPSDKSISEKYPLGERAVESYTEQLLHGSAATFVYDYHERIFEYPSDKKELKNDQIDYIVNKLKEQINSRRAIAITWNPYIDQTVKDVPCLQIVQFLIRDNKLYQTVLFRSNDAFLAFHANAIGLIALGEMVAEKLEIELAKYTHHSVSMHVYSERDIDALKKF” the entry was “not failed”; with “MLALKSSELEGIATSLTAVAGALHESNTDRLQSWQQLETMTSASSLIQGFIKLVDYNRPTVNIVEQMHKTASTLFNTADFLRTLEGYVDVLEKQADKSITLTVMLRYIASLSSLLDLMCAREINALCTAITPEPLKHLGDFGTLPASAIHEFHLVNAPPEIRALAEAHPDMQILEAGDGSLVASFGDIDRATTVTTIVAGVGSSNPEGWNTYVDRARTVSASTGSATVLWLGYQAPASIPAAVSGAAANRAAADLQRFQAALQSRNPHQRKVVMGYSYGSTVVGKAASSGELSADALVLVGSPGAGVSHSSQLGAPVYAVTGSADPIGFAGTQYDGIHGTDPTAALFGATVWDSPSTHSGYWNDQEFLGNVAEVVRGK”, “failed”.
